B1: FLAG-TSC22D2 (full length, wild type) [human] / HA-NRBP1 WT [human] (parent complex)
chain 1: MSKMPAKKKSCFQITSVTTAQVATSITEDTESLDDPDESRTEDVSSEIFDVSRATDYGPEEVCERSSSEETLNNVGDAETPGTVSPNLLLDGQLAAAAAAPANGGGVVSARSVSGALASTLAAAATSAPAPGAPGGPQLAGSSAGPVTAAPSQPPTTCSSRFRVIKLDHGSGEPYRRGRWTCMEYYERDSDSSVLTRSGDCIRHSSTFDQTAERDSGLGATGGSVVVVVASMQGAHGPESGTDSSLTAVSQLPPSEKMSQPTPAQPQSFSVGQPQPPPPPVGGAVAQSSAPLPPFPGAATGPQPMMAAAQPSQPQGAGPGGQTLPPTNVTLAQPAMSLPPQPGPAVGAPAAQQPQQFAYPQPQIPPGHLLPVQPSGQSEYLQQHVAGLQPPSPAQPSSTGAAASPATAATLPVGTGQNASSVGAQLMGASSQPSEAMAPRTGPAQGGQVAPCQPTGVPPATVGGVVQPCLGPAGAGQPQSVPPPQMGGSGPLSAVPGGPHAVVPGVPNVPAAVPAPSVPSVSTTSVTMPNVPAPLAQSQQLSSHTPVSRSSSIIQHVGLPLAPGTHSAPTSLPQSDLSQFQTQTQPLVGQVDDTRRKSEPLPQPPLSLIAENKPVVKPPVADSLANPLQLTPMNSLATSVFSIAIPVDGDEDRNPSTAFYQAFHLNTLKESKSLWDSASGGGVVAIDNKIEQAMDLVKSHLMYAVREEVEVLKEQIKELVERNSLLERENALLKSLSSNDQLSQLPTQQANPGSTSQQQAVIAQPPQPTQPPQQPNVSSA
chain 2: not shown

Variants of: B1
Assay: co-immunoprecipitation (HA-IP) with immunoblot densitometry; HEK293 cells stably expressing HA-NRBP1, 36 hours after transfection; N = 2, n = 2; read off a plot
In the case of chain 1 R161E, chain 1 F162A, chain 1 R179E, the response is reported as roughly 0.02. chain 1 R179A showed a response of roughly 0.22. Variant chain 1 R179E has a response of roughly 0.09. Variant chain 1 R161A, chain 1 F162A has a response of roughly 0.35. For chain 1 R161A, the response was roughly 0.76.
